Legend:
wild-type EGFR (human) [1] = target: wild-type EGFR (human) (UniProt P00533); experiment: Scatchard, 125I-528 on A431 cells
de2-7 EGFR (human) = de2-7 EGFR (human) (UniProt P00533); experiment: immunohistochemistry, glioblastoma pre-typed: EGFR amplified, de2-7 EGFR expressed
wild-type EGFR (human) [2] = target: wild-type EGFR (human) (UniProt P00533); experiment: immunohistochemistry, glioblastoma pre-typed: EGFR amplified, no de2-7 EGFR expression

receptors per cell (receptors per cell) (wild-type EGFR (human) [1]): 2e+06
percent of immunoreactive cells (de2-7 EGFR (human)): > 75%
percent of immunoreactive cells (wild-type EGFR (human) [2]): > 75%
Substance: mAb528 (antibody)
